Target: T1, endogenous 53Bp1 (human p53-binding protein) from U2OS nuclear extracts (human, UniProt Q12888 1-1972)
T1 construct: Endogenous protein in nuclear extracts
Test: co-immunoprecipitation from U2OS nuclear extracts, western blot
Method: Nuclear extracts from mock treated U20S cells or cells exposed to 1 or 8 Gy gamma irradiation were prepared as described by Waterman et al, 1998 Nature Genet., 19:175-178. Endogenous 53BP1, Mre11, or p95/NBS were immunoprecipitated by binding 1 μg/reaction of monoclonal anti-53BP1, or 1 μg/reaction purified Mre11 or p95/NBS antisera (Calbiochem) in 1× IP buffer [25 mM Hepes (pH 7.4)/100 mM NaCl/5 mM MgCl₂/100 mM EDTA/0.2 mg/ml BSA/0.1% Tween-20] to protein-G sepharose beads (Amersham) for 1 hour. After washing three times with 1× IP buffer, 100 μg nuclear extract was added and proteins allowed to bind for 1 hour at 4° C. The beads were washed and the proteins resolved on 6% SDS-PAGE, transferred to PVDF membrane and were visualized by western blot using the antibodies described in Part A above.

T1 sequence (Q12888 whole entry): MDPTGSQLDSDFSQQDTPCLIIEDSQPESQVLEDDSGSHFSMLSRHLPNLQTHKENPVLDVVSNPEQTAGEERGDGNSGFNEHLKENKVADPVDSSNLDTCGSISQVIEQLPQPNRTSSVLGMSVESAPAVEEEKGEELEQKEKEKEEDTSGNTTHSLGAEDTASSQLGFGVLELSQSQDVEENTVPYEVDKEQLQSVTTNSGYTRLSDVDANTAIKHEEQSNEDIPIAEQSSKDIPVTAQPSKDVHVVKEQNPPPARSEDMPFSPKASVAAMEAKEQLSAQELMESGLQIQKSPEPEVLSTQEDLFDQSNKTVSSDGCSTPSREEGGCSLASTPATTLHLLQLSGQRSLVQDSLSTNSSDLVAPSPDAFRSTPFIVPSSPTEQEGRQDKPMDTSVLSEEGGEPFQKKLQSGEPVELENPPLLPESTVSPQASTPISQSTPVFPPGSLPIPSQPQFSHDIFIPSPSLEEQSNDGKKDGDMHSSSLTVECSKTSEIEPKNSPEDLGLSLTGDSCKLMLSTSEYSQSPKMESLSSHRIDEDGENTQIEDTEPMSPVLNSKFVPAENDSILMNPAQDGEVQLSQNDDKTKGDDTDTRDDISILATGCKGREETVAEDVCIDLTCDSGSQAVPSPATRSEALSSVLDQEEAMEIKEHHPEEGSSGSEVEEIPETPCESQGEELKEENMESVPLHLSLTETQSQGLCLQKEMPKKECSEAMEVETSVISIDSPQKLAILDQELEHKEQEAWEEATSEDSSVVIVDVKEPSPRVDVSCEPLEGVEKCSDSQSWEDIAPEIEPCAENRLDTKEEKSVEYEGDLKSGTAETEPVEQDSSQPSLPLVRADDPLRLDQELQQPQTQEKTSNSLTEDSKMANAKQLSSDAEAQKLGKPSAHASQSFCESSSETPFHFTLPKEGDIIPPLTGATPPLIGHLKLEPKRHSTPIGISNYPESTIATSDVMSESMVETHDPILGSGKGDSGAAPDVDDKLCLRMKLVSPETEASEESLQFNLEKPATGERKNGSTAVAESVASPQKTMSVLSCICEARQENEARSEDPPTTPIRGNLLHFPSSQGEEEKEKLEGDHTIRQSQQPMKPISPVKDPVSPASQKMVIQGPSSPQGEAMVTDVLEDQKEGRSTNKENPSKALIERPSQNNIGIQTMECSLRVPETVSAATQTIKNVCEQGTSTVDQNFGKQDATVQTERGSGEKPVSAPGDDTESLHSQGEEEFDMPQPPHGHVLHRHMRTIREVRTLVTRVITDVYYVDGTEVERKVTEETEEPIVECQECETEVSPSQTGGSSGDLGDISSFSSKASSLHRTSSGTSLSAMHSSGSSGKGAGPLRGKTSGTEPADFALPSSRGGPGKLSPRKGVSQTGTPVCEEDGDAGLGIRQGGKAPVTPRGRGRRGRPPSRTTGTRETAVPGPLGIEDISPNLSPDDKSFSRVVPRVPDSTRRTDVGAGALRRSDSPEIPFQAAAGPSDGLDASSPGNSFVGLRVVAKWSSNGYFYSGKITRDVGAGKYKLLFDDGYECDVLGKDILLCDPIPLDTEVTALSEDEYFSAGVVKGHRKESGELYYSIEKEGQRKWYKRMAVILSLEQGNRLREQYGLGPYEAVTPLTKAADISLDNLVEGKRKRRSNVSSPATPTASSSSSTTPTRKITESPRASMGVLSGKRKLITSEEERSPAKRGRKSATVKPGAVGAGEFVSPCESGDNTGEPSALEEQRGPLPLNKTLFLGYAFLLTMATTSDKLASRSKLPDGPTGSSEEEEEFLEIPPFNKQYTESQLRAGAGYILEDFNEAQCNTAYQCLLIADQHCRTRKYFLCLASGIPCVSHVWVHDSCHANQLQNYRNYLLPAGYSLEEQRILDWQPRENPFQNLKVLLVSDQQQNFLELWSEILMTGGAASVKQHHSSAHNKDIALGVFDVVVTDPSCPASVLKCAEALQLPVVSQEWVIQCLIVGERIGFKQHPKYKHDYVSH

| binding result | Binder |
| --- | --- |
| no binding | Mre11 (other, UniProt P49959 2-708, looked up, Member of the Mre11/Rad50/NBS complex) STADALDDENTFKILVATDIHLGFMEKDAVRGNDTFVTLDEILRLAQENEVDFILLGGDLFHENKPSRKTLHTCLELLRKYCMGDRPVQFEILSDQSVNFGFSKFPWVNYQDGNLNISIPVFSIHGNHDDPTGADALCALDILSCAGFVNHFGRSMSVEKIDISPVLLQKGSTKIALYGLGSIPDERLYRMFVNKKVTMLRPKEDENSWFNLFVIHQNRSKHGSTNFIPEQFLDDFIDLVIWGHEHECKIAPTKNEQQLFYISQPGSSVVTSLSPGEAVKKHVGLLRIKGRKMNMHKIPLHTVRQFFMEDIVLANHPDIFNPDNPKVTQAIQSFCLEKIEEMLENAERERLGNSHQPEKPLVRLRVDYSGGFEPFSVLRFSQKFVDRVANPKDIIHFFRHREQKEKTGEEINFGKLITKPSEGTTLRVEDLVKQYFQTAEKNVQLSLLTERGMGEAVQEFVDKEEKDAIEELVKYQLEKTQRFLKERHIDALEDKIDEEVRRFRETRQKNTNEEDDEVREAMTRARALRSQSEESASAFSADDLMSIDLAEQMANDSDDSISAATNKGRGRGRGRRGGRGQNSASRGGSQRGRADTGLETSTRSRNSKTAVSASRNMSIIDAFKSTRQQPSRNVTTKNYSEVIEVDESDVEEDIFPTTSKTDQRWSSTSSSKIMSQSQVSKGVDFESSEDDDDDPFMNTSSLRRNRR |
| no binding | Rad50 (other, UniProt Q92878 1-1312, looked up, Member of the Mre11/Rad50/NBS complex) MSRIEKMSILGVRSFGIEDKDKQIITFFSPLTILVGPNGAGKTTIIECLKYICTGDFPPGTKGNTFVHDPKVAQETDVRAQIRLQFRDVNGELIAVQRSMVCTQKSKKTEFKTLEGVITRTKHGEKVSLSSKCAEIDREMISSLGVSKAVLNNVIFCHQEDSNWPLSEGKALKQKFDEIFSATRYIKALETLRQVRQTQGQKVKEYQMELKYLKQYKEKACEIRDQITSKEAQLTSSKEIVKSYENELDPLKNRLKEIEHNLSKIMKLDNEIKALDSRKKQMEKDNSELEEKMEKVFQGTDEQLNDLYHNHQRTVREKERKLVDCHRELEKLNKESRLLNQEKSELLVEQGRLQLQADRHQEHIRARDSLIQSLATQLELDGFERGPFSERQIKNFHKLVRERQEGEAKTANQLMNDFAEKETLKQKQIDEIRDKKTGLGRIIELKSEILSKKQNELKNVKYELQQLEGSSDRILELDQELIKAERELSKAEKNSNVETLKMEVISLQNEKADLDRTLRKLDQEMEQLNHHTTTRTQMEMLTKDKADKDEQIRKIKSRHSDELTSLLGYFPNKKQLEDWLHSKSKEINQTRDRLAKLNKELASSEQNKNHINNELKRKEEQLSSYEDKLFDVCGSQDFESDLDRLKEEIEKSSKQRAMLAGATAVYSQFITQLTDENQSCCPVCQRVFQTEAELQEVISDLQSKLRLAPDKLKSTESELKKKEKRRDEMLGLVPMRQSIIDLKEKEIPELRNKLQNVNRDIQRLKNDIEEQETLLGTIMPEEESAKVCLTDVTIMERFQMELKDVERKIAQQAAKLQGIDLDRTVQQVNQEKQEKQHKLDTVSSKIELNRKLIQDQQEQIQHLKSTTNELKSEKLQISTNLQRRQQLEEQTVELSTEVQSLYREIKDAKEQVSPLETTLEKFQQEKEELINKKNTSNKIAQDKLNDIKEKVKNIHGYMKDIENYIQDGKDDYKKQKETELNKVIAQLSECEKHKEKINEDMRLMRQDIDTQKIQERWLQDNLTLRKRNEELKEVEEERKQHLKEMGQMQVLQMKSEHQKLEENIDNIKRNHNLALGRQKGYEEEIIHFKKELREPQFRDAEEKYREMMIVMRTTELVNKDLDIYYKTLDQAIMKFHSMKMEEINKIIRDLWRSTYRGQDIEYIEIRSDADENVSASDKRRNYNYRVVMLKGDTALDMRGRCSAGQKVLASLIIRLALAETFCLNCGIIALDEPTTNLDRENIESLAHALVEIIKSRSQQRNFQLLVITHDEDFVELLGRSEYVEKFYRIKKNIDQCSEIVKCSVSSLGFNVH |
